Results on 6 molecules are retold here after patent US20230406921A1 (MABWELL SHANGHAI BIOSCIENCE, published 2023).

The target of test [1] is T1, CD47 on the surface of human red blood cells (human, UniProt Q08722 19-323).
T1 construct: whole, on cells; Same protein as m3, on red blood cells; also called hRBC; RBC
In words: FACS, RBC, 200 nM. (In general: In flow cytometry, cells or beads pass a laser one at a time.)
Description: (§1) The difference between the binding of the mutant to CD47 on the surface of tumor cells and CD47 on the surface of red blood cells was evaluated.

For test [2], the target named is T2, recombinant antigen of the extracellular region of CD47 (Sino Biological, Cat: 12283-H08H) (human, UniProt Q08722 19-139).
T2 construct: extracellular domain; also called recombinant CD47 extracellular region; CD47 recombinant protein
As to the kind of experiment: Fortebio BLI, recombinant CD47. For orientation: Biolayer interferometry detects binding as a change in optical thickness at a sensor tip.

For test [3], the target named is T3, CD47 on the surface of tumor cells (human, UniProt Q08722 19-323).
T3 construct: whole, on cells; Same protein as m4; also called CD47 antigen on the surface of U937 and CCRF cells; SKOV-3
As to the kind of experiment: FACS, tumor cells, 2 nM.
Description: as §1

B1: hz140-Hm13/hz182-Lm5 (antibody, V domains shown)
VH: EVQLVQSGAEVKKPGASVKVSCKASGYKFTNYVMSWVRQAPGQRLEWMGYINPYNDAIKYNEKFTGRVTITRDTSASTAYMELSSLRSEDTAVYYCAREGDFYANYGRLGFAYWGQGTLVTVSS
VL: DIQMTQSPSSLSASVGDRVTITCRASQDISNYLNWYQQKPGKAPKLLLYYTSRLHSGVPSRFSGSGSGTDYTLTISSLQPEDFATYFCQQGDGRPYTFGGGTKVEIKR
As usually defined, the Kd is the concentration at which binding is half-saturated. What is called kon is the rate constant with which the complex forms. For B1, the “FACS (MFI)” value in test [1] was determined as 3310 MFI. Besides, in test [2], the Kd was 667 nM and the association rate constant (kon) turned out to be 79900 M⁻¹ s⁻¹. Also, in test [3], the “FACS (MFI)” value came to 39900 MFI.

B2: hz140-Hm13/hz182-Lm6 (antibody, V domains shown)
VH: EVQLVQSGAEVKKPGASVKVSCKASGYKFTNYVMSWVRQAPGQRLEWMGYINPYNDAIKYNEKFTGRVTITRDTSASTAYMELSSLRSEDTAVYYCAREGDFYANYGRLGFAYWGQGTLVTVSS
VL: DIQMTQSPSSLSASVGDRVTITCRASQDISNYLNWYQQKPGKAPKLLLYYTSRLHSGVPSRFSGSGSGTDYTLTISSLQPEDFATYFCQQGATRPYTFGGGTKVEIKR
Turning to B2, the “FACS (MFI)” value in test [1] was found to be 695 MFI. Moreover, in test [2], the equilibrium dissociation constant (Kd) turned out to be 12.5 nM and the kon is 114000 M⁻¹ s⁻¹. Besides, in test [3], the “FACS (MFI)” value came to 15900 MFI.

B3: hz140-Hm13/hz182-Lm10 (antibody, V domains shown)
VH: EVQLVQSGAEVKKPGASVKVSCKASGYKFTNYVMSWVRQAPGQRLEWMGYINPYNDAIKYNEKFTGRVTITRDTSASTAYMELSSLRSEDTAVYYCAREGDFYANYGRLGFAYWGQGTLVTVSS
VL: DIQMTQSPSSLSASVGDRVTITCRASQDISNYLNWYQQKPGKAPKLLLYYTSRLHSGVPSRFSGSGSGTDYTLTISSLQPEDIATYFCQQGAGFPYTFGGGTKVEIKR
With B3, in test [1], the “FACS (MFI)” value is 326 MFI. Further, in test [2], the Kd stood at 5.14 nM and the on-rate constant (kon) is 176000 M⁻¹ s⁻¹. Also, the “FACS (MFI)” value in test [3] was 19000 MFI.

B4: hz140-Hm13/hz182-Lm8 (antibody, V domains shown)
VH: EVQLVQSGAEVKKPGASVKVSCKASGYKFTNYVMSWVRQAPGQRLEWMGYINPYNDAIKYNEKFTGRVTITRDTSASTAYMELSSLRSEDTAVYYCAREGDFYANYGRLGFAYWGQGTLVTVSS
VL: DIQMTQSPSSLSASVGDRVTITCRASQDISNYLNWYQQKPGKAPKLLLYYTSRLHSGVPSRFSGSGSGTDYTLTISSLQPEDFATYFCQQGAGRPRTFGGGTKVEIKR
notes: also called h182Lmut8
Regarding B4, the “FACS (MFI)” value in test [1] is 40800 MFI. In test [2], the dissociation constant (Kd) was 12.9 nM and the on-rate (kon) was 234000 M⁻¹ s⁻¹. Also, the “FACS (MFI)” value in test [3] was 39100 MFI.

B5: hz140-Hm13/hz182-Lm11 (antibody, V domains shown)
VH: EVQLVQSGAEVKKPGASVKVSCKASGYKFTNYVMSWVRQAPGQRLEWMGYINPYNDAIKYNEKFTGRVTITRDTSASTAYMELSSLRSEDTAVYYCAREGDFYANYGRLGFAYWGQGTLVTVSS
VL: DIQMTQSPSSLSASVGDRVTITCRASQDISNYLNWYQQKPGKAPKLLLYYTSRLHSGVPSRFSGSGSGTDYTLTISSLQPEDIATYFCQQGDTFPYTFGGGTKVEIKR
B5: the “FACS (MFI)” value amounted to 321 MFI in test [1] and 20100 MFI in test [3]. For the same molecule, the Kd in test [2] was determined as 53.1 nM. In addition, in test [2], the on-rate constant (kon) is 103000 M⁻¹ s⁻¹.

B6: hz140-Hm13/hz182-Lm9 (antibody, V domains shown)
VH: EVQLVQSGAEVKKPGASVKVSCKASGYKFTNYVMSWVRQAPGQRLEWMGYINPYNDAIKYNEKFTGRVTITRDTSASTAYMELSSLRSEDTAVYYCAREGDFYANYGRLGFAYWGQGTLVTVSS
VL: DIQMTQSPSSLSASVGDRVTITCRASQDISNYLNWYQQKPGKAPKLLLYYTSRLHSGVPSRFSGSGSGTDYTLTISSLQPEDFATYFCQQGDTFPYTFGGGTKVEIKR
Consider B6, for which the “FACS (MFI)” value in test [1] is 1750 MFI. For the same molecule, in test [2], the Kd was found to be 38.9 nM and the on-rate (kon) stood at 132000 M⁻¹ s⁻¹. Further, in test [3], the “FACS (MFI)” value is 16400 MFI.
